According to publication PMC10104074:

Target: globupain zymogen (wild-type, signal-free, C-terminal 6xHis) (unclassified Archaeoglobus species (metagenome, Soria Moria hydrothermal vent field))
Test: SEC + AUC

- stoichiometry N: 2
Substance: globupain zymogen (wild-type, signal-free, C-terminal 6xHis) (enzyme)
